Test results published in patent publication EP4663199A1.

Biological target: bispecific binding molecule comprising a first specific binding molecule (comprising SEQ ID NO:265 a)
Sequence (chain, as listed by the source, chain 1 of 3): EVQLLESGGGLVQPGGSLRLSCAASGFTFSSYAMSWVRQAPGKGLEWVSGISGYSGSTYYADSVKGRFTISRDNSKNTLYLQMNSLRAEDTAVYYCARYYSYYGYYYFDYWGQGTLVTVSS
Sequence (chain, as listed by the source, chain 2 of 3): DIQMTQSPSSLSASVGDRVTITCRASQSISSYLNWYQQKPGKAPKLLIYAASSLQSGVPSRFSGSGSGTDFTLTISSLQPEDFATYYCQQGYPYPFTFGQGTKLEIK
Sequence (chain, as listed by the source, chain 3 of 3): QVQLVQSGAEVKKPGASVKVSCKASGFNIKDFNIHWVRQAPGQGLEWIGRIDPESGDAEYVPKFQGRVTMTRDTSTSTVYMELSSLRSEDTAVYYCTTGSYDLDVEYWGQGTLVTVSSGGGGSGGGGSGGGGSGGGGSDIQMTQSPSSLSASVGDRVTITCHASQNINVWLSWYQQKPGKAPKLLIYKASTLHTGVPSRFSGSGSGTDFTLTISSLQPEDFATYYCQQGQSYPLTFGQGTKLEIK

Binder: FIGITELKK (modifications not checked) [tag moiety … (SEQ ID NO:2)]
- Kd: 9.4 pM
